{"source": "paper PMC8805217", "about": "“Crystal structure of a hypothetical protein from Giardia lamblia” (Acta Crystallographica. Section F, Structural Biology …, 2022)", "target": "the molecule itself", "assay": "crystal structure; X-ray, molecular replacement, 1.35 Å; sitting-drop vapor diffusion at 290 K, protein in 20 mM HEPES pH 7.0, 300 mM NaCl, 5% glycerol, 1 mM TCEP; reservoir 100 mM Tris pH 5.5, 25% PEG 3350, 200 mM ammonium acetate"}
{"protein": "hypothetical protein from Giardia lamblia (GilaA.00312.a) (natural protein, hypothetical protein of Giardia lamblia GL50803_14299, 141 amino acids, amino acids 1-141 of UniProt A8BD71; Homotrimer in the crystal structure (PDB 3i3f); also called hypothetical G. lamblia protein; GL50803_14299; source: E. coli BL21(DE3)R3 Rosetta, purified (IMAC, 3C cleavage of the His tag, reverse IMAC, SEC); not shown: 6xHis, N-terminal, cleaved) GPGSMIYGILSKNLGMPTPTFLVCPDVVKFENVGQIAVVNGMVYLGGSVGIDKSGTLHKGLEEQTRQTFDNIRKCLEYANSGLDYIVSLNIFLSTSLSDSEEARFNELYREVFCVPATRPCRCCVRAQLQEGLLVEVVNVVAAQK", "values": [{"measurement": "stoichiometry N", "value": 3}]}
